Target: H3-tailless nucleosomes (nucleosomes with the first 33 residues of H3 removed) (human) (UniProt P04908)

Substance	fold reduction of S1/2 on H3-tailless nucleosomes [fold]
Pho4ΔN (AA 250–312) (from UniProt P07270 250-312) (domain or fragment)	3.1
Cbf1ΔN (residues 209–351) (from UniProt P17106 209-351) (domain or fragment)	1.3

Reference: publication PMC10182836
